# In patent US20240076386A1 (Pfizer, published 2024):
# T1: cynomolgus monkey E-selectin, cell-surface expressed (cynomolgus monkey, UniProt P16581 22-610 (human entry))
# T1 chain: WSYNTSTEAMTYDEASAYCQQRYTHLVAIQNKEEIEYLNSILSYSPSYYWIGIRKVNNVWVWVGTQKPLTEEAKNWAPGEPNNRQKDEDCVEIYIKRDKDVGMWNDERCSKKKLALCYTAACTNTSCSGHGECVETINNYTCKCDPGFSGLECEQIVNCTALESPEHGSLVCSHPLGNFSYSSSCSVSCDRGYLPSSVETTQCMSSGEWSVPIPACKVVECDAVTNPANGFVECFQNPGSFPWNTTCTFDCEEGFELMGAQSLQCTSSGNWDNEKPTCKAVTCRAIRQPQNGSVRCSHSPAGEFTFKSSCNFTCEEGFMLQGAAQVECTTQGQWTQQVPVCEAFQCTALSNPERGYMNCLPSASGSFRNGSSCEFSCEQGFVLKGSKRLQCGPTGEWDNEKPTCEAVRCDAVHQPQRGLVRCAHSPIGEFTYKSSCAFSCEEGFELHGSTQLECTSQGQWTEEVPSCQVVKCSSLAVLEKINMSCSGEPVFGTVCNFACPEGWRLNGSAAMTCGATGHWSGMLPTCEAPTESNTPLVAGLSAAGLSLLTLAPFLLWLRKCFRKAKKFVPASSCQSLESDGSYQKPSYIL
# T2: recombinant histidine-tagged human E-selectin (Sino Biologicals; 13025-H08H) (human, UniProt P16581 22-556)
# T2 sequence (looked up): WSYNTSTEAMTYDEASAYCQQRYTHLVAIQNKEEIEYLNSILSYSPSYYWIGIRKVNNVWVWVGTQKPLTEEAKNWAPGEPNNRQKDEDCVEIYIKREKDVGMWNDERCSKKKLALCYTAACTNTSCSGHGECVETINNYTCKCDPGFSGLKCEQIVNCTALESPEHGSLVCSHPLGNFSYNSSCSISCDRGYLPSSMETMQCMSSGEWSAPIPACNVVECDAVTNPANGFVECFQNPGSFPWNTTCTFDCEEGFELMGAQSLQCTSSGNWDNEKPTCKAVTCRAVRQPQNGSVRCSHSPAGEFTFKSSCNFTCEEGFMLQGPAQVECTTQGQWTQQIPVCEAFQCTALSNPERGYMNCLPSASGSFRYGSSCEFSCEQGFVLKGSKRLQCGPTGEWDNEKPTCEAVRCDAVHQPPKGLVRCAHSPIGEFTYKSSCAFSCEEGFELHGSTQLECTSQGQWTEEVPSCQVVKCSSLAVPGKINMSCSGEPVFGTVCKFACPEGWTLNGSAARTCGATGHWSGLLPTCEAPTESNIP
# T3: human E-selectin, cell-surface expressed (human, UniProt P16581 22-610)
# T3 sequence: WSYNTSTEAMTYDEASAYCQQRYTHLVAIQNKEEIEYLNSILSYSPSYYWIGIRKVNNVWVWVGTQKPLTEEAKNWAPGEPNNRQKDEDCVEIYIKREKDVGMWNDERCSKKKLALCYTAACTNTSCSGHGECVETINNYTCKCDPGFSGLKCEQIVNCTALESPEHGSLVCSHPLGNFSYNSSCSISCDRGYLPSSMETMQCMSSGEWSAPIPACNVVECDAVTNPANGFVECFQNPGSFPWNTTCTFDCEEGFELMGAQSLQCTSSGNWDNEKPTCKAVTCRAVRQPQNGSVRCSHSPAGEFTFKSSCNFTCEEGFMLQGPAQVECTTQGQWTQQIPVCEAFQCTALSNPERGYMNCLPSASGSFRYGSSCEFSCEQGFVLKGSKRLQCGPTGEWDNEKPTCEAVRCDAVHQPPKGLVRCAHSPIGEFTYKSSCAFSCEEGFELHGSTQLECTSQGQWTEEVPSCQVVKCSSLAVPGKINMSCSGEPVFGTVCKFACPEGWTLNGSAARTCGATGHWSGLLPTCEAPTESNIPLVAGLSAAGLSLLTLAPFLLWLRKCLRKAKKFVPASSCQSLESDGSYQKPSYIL
# T4: cynomolgus monkey E-selectin extracellular domain with 10 His purification tail (cynomolgus monkey, UniProt P16581 22-554 (human entry))
# T4 construct: also called cynomolgus E-selectin; truncated cynomolgus monkey E-selectin
# T4 chain: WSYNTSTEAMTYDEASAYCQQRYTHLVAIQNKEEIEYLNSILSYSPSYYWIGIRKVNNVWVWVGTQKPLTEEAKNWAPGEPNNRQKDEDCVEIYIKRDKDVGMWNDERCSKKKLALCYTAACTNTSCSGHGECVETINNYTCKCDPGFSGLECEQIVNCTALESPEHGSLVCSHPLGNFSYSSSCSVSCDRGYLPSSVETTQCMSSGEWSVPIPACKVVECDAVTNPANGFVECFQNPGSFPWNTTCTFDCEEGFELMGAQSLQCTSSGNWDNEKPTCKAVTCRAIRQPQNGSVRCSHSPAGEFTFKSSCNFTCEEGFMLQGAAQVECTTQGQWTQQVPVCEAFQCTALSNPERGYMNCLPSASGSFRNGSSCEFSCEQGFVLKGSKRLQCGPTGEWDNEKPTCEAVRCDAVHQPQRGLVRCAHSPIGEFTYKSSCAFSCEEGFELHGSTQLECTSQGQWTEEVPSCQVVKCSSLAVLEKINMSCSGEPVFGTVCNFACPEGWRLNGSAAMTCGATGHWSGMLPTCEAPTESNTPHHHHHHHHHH
# B1: optimized anti-E-selectin antibody 1444 (antibody, human IgG1, kappa, V domains shown)
# VH: EVQLVESGGGLVQPGGSLRLSCAASGYAIRSAYMHWVRQAPGKGLEWVARIDPANGNTIYVDSVTGRFTISADNAKNSAYLQMNSLRAEDTAVYYCAMDLYSTSEYWGQGTLVTVSS
# VL: DIQMTQSPSSLSASVGDRVTITCKTSQNIERYLNWYQQKPGKAPKLLIYAASSLQSGVPSRFSGSGSGTDFTLTISSLQPEDFATYFCLQDNAWPLTFGQGTKVEIKR
# notes: effector-null human IgG1, kappa
# B2: anti-E-selectin antibody 0158 chimera (antibody, human IgG1, kappa, V domains shown)
# VH: QVQLKESGPGLVQPSETLSLTCTVSGFSISTYNVHWLRQPPGKGLEWMGMMWSGGSPDYNSALKSRLSISRDTSKNQVFLKMNSLQSEDTTTYYCARWGGGFDYWGQGVMVTVSS
# VL: DIVLTQSPTTLSVTPGETVSLSCRASHSIGTNLHWYQQKTNESPRLLIKFTSQSISGIPSRFSASGSGTDFTLNINNVEFDDVSSYFCQQTQSWPLTFGSGTKLEIKR
# notes: rat VH/VL on effector-null human IgG1 and human kappa
# Key:
# [1] = biological target: T1, cynomolgus monkey E-selectin, …; assay: cell-based or functional assay
# [2] = biological target: T2, recombinant histidine-tagged human …; assay: cell-based or functional assay
# [3] = biological target: T3, human E-selectin, cell-surface expressed; assay: cell-based or functional assay
# [4] = biological target: T4, cynomolgus monkey E-selectin …; assay: AlphaLISA competition vs sialyl Lewis A-PAA-biotin; AlphaLISA neutralization assay (ligand competition), not SPR
# Method: The neutralization ability of anti-E-selectin antibodies was measured in an AlphaLISA homogenous competition assay. […] This was incubated at room temperature for 15 minutes, followed by addition of 1.4 μL of human, mouse or cynomolgus monkey E-selectin added to a final concentration of 7 nM. This was again incubated at room temperature for 15 minutes. To this, 1.4 μL AlphaLISA beads was added (Ni-donor/SA-acceptor) for a final assay concentration of 10 μg/mL. This was incubated in the dark at room temperate for at least 10 hours. The plates were then read using the AlphaLISA protocol (Envision).
Binder,"Flow adhesion neutralization of HL-60 cells, CHO cells, cynomolgus monkey E-selectin, IC50 [1]","Neutralization of Human Neutrophils, CHO cells, cynomolgus E-selectin, flow, IC50 [1]","Static adhesion neutralization of HL-60 cells, CHO cells, cynomolgus monkey E-selectin, IC50 [1]","Flow adhesion neutralization of HL-60 cells, soluble recombinant human E-selectin, IC50 [2]","Neutralization of SCD patient cells, soluble human recombinant protein, flow, IC50 (mean) [2]","Flow adhesion neutralization of HL-60 cells, CHO cells, human E-selectin, IC50 [3]","Neutralization of Human Neutrophils, CHO cells, human E-selectin, flow, IC50 [3]","Static adhesion neutralization of HL-60 cells, CHO cells, human E-selectin, IC50 [3]",EC50 [4]
B1,4.32 to 4.35 nM,9.45 to 16.3 nM,3.84 nM,13.3 to 15.9 nM,12.4 nM,4.25 to 4.56 nM,2.87 to 4.65 nM,3.36 to 4.7 nM,–
B2,–,–,–,–,–,–,–,–,< 1 nM
